The source of these data is patent publication US20050064518A1 (PURDUE PHARMA L P, published 2005).

The assay concerns the target T1, shed CA 125/O772P polypeptide (human, UniProt Q8WXI7 1-14401, limits assumed).
T1 construct: OVCAR-3 conditioned medium in the western blot; also called high molecular weight species in OVCAR-3 supernatant
Kind of assay: western blot of OVCAR-3 conditioned media (Time 0, 1 hour, 6 hours, Day 1, Day 2, Day 3), chemiluminescence. (In general: Immunoblotting shows a protein as a band on a membrane.)

B1: monoclonal antibody 368.1 (antibody, V domains shown)
VH: EVQLQQSGPELVRTGASVKISCKASGYSFTGFYMHWVKQSLGKSLEWIGYVSCYTGATTYTQKFKGKATFTVDTSSSTAYMQLNSLTSEDSAVYYCAREGDYYSMDFWGQGTSVTVSS
VL: DVVMTQTPLSLPVSLGDQASISCRSSQSLERTNGNTYLHWYLQKPGQSPKLLIYKVSSRFSGVPDRFSGSGSGTDFTLKISRVEAEDLGIYFCSQTTHGPPTCGGGTKLEIK
notes: Murine hybridoma antibody
For B1, the binding result is “no binding (tested: Day 3 conditioned medium)”.
